B1: rat Snapin1 (natural protein)
chain: MAAAGSAAVSGAGTPVAGPTGRDLFAEGLLEFLRPAVQQLDSHVHAVRESQVELREQIDNLATELCRINEDQKVALDLDPYVKKLLNARRRVVLVNNILQNAQERLRRLNHSVAKETARRRAMLDSGVYPPGSPSK

How the values were obtained:
[1] = target: long carboxyl terminus (CTL) of rat Cav1.3L (rat)
[2] = target: long carboxyl terminus (CTL) of rat Cav1.3L (rat); remark: listed apart in the source
[3] = target: long carboxyl terminus (CTL) of rat Cav1.3L (rat); remark: listed apart in the source

Chain of long carboxyl terminus (CTL) of rat Cav1.3L (rat) (P27732 1460-2155): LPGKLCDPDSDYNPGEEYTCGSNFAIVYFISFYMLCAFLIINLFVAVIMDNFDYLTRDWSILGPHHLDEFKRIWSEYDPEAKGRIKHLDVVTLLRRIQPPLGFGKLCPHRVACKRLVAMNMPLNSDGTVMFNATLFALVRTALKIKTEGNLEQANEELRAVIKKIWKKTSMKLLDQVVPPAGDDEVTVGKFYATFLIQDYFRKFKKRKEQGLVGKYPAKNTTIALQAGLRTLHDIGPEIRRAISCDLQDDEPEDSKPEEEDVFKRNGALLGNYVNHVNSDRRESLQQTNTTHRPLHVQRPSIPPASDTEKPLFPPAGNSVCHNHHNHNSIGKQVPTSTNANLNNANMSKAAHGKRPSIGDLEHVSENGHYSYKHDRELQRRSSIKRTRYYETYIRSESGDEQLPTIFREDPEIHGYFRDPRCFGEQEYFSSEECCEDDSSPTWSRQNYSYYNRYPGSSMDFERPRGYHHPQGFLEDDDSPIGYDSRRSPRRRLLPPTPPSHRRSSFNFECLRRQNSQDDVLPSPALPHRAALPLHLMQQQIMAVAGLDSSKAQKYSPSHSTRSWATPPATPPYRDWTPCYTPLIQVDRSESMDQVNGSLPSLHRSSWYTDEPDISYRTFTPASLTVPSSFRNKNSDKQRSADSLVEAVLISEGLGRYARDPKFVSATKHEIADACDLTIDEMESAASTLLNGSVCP

| maximal chord conductance of Cav1.3L channels without vs. with Snapin2 in HEK-293 cells [1] [nS/pF] | average peak current amplitude at −10 mV of Cav1.3L/β3 with vs. without Snapin2 in Xenopus oocytes [2] [nA] | maximal chord conductance of Cav1.3L channels without vs. with Snapin2 in Xenopus oocytes [2] [μS] | maximal normalized chord conductance of Cav1.3L without or with Snapin1 in HEK-293 cells [3] [nS/pF] | Molecule |
| --- | --- | --- | --- | --- |
| 1.86 | -2410 | 28.1 |  | rat Snapin2 (natural protein) |
|  |  |  | 2.09 | B1 |

Source: paper PMC8537452
